Experimental data as given in patent publication US20110059079A1 (XOMA TECHNOLOGY, published 2011).

Assays:
Experiment in all cases: ELISA on plate-coated toxin domain
[1] = biological target: BoNT/A light-chain heavy-chain N-terminus (LCHN) domain (UniProt P0DPI0 1-870)
[2] = biological target: BoNT/A heavy-chain N-terminus (HCN) domain (UniProt P0DPI0 871-1092)
[3] = biological target: BoNT/A heavy-chain C-terminus (HCC) domain (UniProt P0DPI0 1093-1296)
Sequence of BoNT/A heavy-chain C-terminus (HCC) domain (P0DPI0 1093-1296 limits assumed): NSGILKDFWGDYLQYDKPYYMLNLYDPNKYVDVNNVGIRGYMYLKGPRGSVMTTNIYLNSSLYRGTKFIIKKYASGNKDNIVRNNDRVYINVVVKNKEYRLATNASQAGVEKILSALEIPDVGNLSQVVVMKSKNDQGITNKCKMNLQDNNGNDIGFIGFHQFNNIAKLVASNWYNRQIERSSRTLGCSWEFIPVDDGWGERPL

Sequence of BoNT/A light-chain heavy-chain N-terminus (LCHN) domain (P0DPI0 1-870 limits assumed): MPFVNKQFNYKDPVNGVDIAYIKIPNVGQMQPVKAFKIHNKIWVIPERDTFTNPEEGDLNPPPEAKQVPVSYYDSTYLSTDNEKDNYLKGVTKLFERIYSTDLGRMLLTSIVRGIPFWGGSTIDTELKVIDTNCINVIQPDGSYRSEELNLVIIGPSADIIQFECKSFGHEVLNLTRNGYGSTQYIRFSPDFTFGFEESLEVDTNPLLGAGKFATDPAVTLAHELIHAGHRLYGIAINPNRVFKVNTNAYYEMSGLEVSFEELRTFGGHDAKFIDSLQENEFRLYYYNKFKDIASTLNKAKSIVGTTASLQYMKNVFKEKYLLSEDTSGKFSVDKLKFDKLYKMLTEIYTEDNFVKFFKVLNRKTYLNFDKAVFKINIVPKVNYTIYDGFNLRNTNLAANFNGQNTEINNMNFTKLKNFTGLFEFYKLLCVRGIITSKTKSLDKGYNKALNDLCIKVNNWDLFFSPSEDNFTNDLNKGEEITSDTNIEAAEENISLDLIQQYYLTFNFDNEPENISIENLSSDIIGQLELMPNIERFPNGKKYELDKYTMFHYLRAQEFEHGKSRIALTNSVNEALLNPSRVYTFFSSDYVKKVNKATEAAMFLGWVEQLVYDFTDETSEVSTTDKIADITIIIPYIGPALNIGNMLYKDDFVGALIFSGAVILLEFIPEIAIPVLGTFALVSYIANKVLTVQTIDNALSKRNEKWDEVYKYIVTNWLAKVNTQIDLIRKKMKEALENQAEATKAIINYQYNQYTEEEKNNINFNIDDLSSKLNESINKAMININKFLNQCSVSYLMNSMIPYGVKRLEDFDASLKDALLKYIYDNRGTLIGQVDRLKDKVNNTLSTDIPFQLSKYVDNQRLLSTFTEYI
Sequence of BoNT/A heavy-chain N-terminus (HCN) domain (P0DPI0 871-1092 limits assumed): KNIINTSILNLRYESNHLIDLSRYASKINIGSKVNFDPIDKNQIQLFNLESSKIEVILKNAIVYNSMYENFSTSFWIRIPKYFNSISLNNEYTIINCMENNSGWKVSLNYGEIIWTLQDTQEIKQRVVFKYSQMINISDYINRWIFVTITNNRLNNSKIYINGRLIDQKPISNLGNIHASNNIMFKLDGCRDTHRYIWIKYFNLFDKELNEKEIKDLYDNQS

B1: ABT02 (antibody, V domains shown)
VH: QVQLVQSGGGVVHPGRSLKLSCAGSGFTFSDYDMHWVRQAPGKGLEWVAVMWFDGTEKYSAESVKGRFTISRDNSKNTLFLQMNSLRADDTAVYYCAREPDWLLWGDRGALDVWGQGTTVTVSS
VL: DIVMTQSPSTLSASVGDRVTITCWASQSISSRLAWYQQKPGKAPKLLMYEATSLGSGVPSRFSGSGSGTEFTLTISSLQPDDFAAYYCQHYDTYPYTFGQGTKLEIK
Question: Which results are given for B1?
Answer: binding result [1]: no binding; binding result [2]: no binding

B2: ABT01 (antibody, V domains shown)
VH: QVQLQQSGGGLVQPGGSLRLSCAASGFTFKYDYMYWIRQAPGKGLEWVATISDGGSYTYYSDSVEGRFTTSRDNSKNTLYLQMNSLRAEDTAIYYCSRYRYDDAMDYWGQGTLVTVSS
VL: EIVLTQSPATLSLSPGERATISCRASESVDSYGHSFMQWYQQKPGQAPRLLIYRASNLEPGIPARFSGSGSGTDFTLTISSLEPEDFAVYYCQQGNEVPFTFGQGTKVEIK
Question: What does the source list for B2?
Answer: binding result [1]: no binding; binding result [3]: no binding

B3: ABT03 (antibody, V domains shown)
VH: QVQLQQSGGGLVQPGGSLRLSCAASGFTFSNYAMTWVRQAPGKGLEWVSSISVGGSDTYYADSVKGRFTVSRDNSKNTLLLQMNSLRAEDTAVYYCAKVRTKYCSSLSCFAGFDSWGQGTRVTVSS
VL: DVVMTQSPSSLSASVGDRVTITCRASQSISSYLHWYQQKPGKAPTLLISDASSSQSGVPSRFSGSRFGTDFTLTISSLQPEDFATYYCQQSYSTRALTFGGGTKVEIK
Question: Does B3 bind [3]?
Answer: no binding

Question: Does B3 bind [2]?
Answer: no binding
